We go through one substance from IntAct's records for PubMed 21926999.

The target in the test is ARHGAP24, Q8N264-1.
Chain of ARHGAP24, Q8N264-1 (Q8N264 whole entry): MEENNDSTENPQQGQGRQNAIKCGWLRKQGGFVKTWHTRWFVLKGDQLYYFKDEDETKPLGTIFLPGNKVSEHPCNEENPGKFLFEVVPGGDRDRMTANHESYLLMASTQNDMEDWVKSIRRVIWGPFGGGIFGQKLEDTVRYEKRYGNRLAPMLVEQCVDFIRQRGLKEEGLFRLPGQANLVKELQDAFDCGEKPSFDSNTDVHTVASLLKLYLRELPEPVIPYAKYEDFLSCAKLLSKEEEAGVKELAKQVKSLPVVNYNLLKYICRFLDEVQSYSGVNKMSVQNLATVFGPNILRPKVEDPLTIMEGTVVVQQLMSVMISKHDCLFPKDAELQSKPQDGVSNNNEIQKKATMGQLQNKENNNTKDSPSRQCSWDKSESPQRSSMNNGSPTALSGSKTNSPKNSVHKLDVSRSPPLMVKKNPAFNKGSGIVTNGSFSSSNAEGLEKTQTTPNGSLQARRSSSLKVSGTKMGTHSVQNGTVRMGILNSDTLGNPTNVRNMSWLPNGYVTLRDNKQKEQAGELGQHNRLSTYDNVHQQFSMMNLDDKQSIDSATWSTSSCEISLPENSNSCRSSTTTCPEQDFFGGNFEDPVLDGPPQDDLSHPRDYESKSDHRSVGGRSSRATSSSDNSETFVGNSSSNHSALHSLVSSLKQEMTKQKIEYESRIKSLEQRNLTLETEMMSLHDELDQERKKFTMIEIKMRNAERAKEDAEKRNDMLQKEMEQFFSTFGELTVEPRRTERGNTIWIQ

As for Filamin-A (Homo sapiens), P21333 M2474E, the “effect of a mutation on the interaction” value is “disrupting interaction”.
